The assay deals with actin filaments (UniProt P68135 1-377). The assay can be described thus: co-sedimentation.

The Kd is a measure of binding affinity in units of concentration. High values mean lower affinity, low ones higher affinity.

B1: Dys ΔH2-R19 (other)
chain: MLWWEEVEDCYEREDVQKKTFTKWINAQFSKFGKQHIDNLFSDLQDGKRLLDLLEGLTGQKLPKEKGSTRVHALNNVNKALRVLQKNNVDLVNIGSTDIVDGNHKLTLGLIWNIILHWQVKNVMKTIMAGLQQTNSEKILLSWVRQSTRNYPQVNVINFTSSWSDGLALNALIHSHRPDLFDWNSVVSQHSATQRLEHAFNIAKCQLGIEKLLDPEDVATTYPDKKSILMYITSLFQVLPQQVSIEAIQEVEMLPRTSSKVTREEHFQLHHQMHYSQQITVSLAQGYEQTSSSPKPRFKSYAFTQAAYVATSDSTQSPYPSQHLEAPRDKSLDSSLMETEVNLDSYQTALEEVLSWLLSAEDTLRAQGEISNDVEEVKEQFHAHEGFMMDLTSHQGLVGNVLQLGSQLVGKGKLSEDEEAEVQEQMNLLNSRWECLRVASMEKQSKLHKVLMDLQNQKLKELDDWLTKTEERTKKMEEEPFGPDLEDLKCQVQQHKVLQEDLEQEQVRVNSLTHMVVVVDESSGDHATAALEEQLKVLGDRWANICRWTEDRWIVLQDILLKWQHFTEEQCLFSTWLSEKEDAMKNIQTSGFKDQNEMMSSLHKISTLKIDLEKKKPTMEKLSSLNQDLLSALKNKSVTQKMEIWMENFAQRWDNLTQKLEKSSAQISQPDRAPGLSTTGASASQTVTLVTQSVVTKETVISKLEMPSSLLLEVPALADFNRAWTELTDWLSLLDRVIKSQRVMVGDLEDINEMIIKQKATLQDLEQRRPQLEELITAAQNLKNKTSNQEARTIITDRIERIQIQWDEVQEQLQNRRQQLNEMLKDSTQWLEAKEEAEQVIGQVRGKLDSWKEGPHTVDAIQKKITETKQLAKDLRQRQISVDVANDLALKLLRDYSADDTRKVHMITENINTSWGNIHKRVSEQEAALEETHRLLQQFPLDLEKFLSWITEAETTANVLQDASRKEKLLEDSRGVRELMKPWQDLQGEIETHTDIYHNLDENGQKILRSLEGSDEAPLLQRRLDNMNFKWSELQKKSLNIRSHLEASSDQWKRLHLSLQELLVWLQLKDDELSRQAPIGGDFPAVQKQNDIHRAFKRELKTKEPVIMSTLETVRIFLTEQPLEGLEKLYQEPRELPPEERAQNVTRLLRKQAEEVNAEWDKLNLRSADWQRKIDEALERLQELQEAADELDLKLRQAEVIKGSWQPVGDLLIDSLQDHLEKVKALRGEIAPLKENVNRVNDLAHQLTTLGIQLSPYNLSTLEDLNTRWRLLQVAVEDRVRQLHEAHRDFGPASQHFLSTSVQGPWERAISPNKVPYYINHETQTTCWDHPKMTELYQSLADLNNVRFSAYRTAMKLRRLQKALCLDLLSLSAACDALDQHNLKQNDQPMDILQIINCLTTIYDRLEQEHNNLVNVPLCVDMCLNWLLNVYDTGRTGRIRVLSFKTGIISLCKAHLEDKYRYLFKQVASSTGFCDQRRLGLLLHDSIQIPRQLGEVASFGGSNIEPSVRSCFQFANNKPEIEAALFLDWMRLEPQSMVWLPVLHRVAAAETAKHQAKCNICKECPIIGFRYRSLKHFNYDICQSCFFSGRVAKGHKMHYPMVEYCTPTTSGEDVRDFAKVLKNKFRTKRYFAKHPRMGYLPVQTVLEGDNMETPVTLINFWPVDSAPASSPQLSHDDTHSRIEHYASRLAEMENSNGSYLNDSISPNESIDDEHLLIQHYCQSLNQDSPLSQPRSPAQILISLESEERGELERILADLEEENRNLQAEYDRLKQQHEHKGLSPLPSPPEMMPTSPQSPRDAELIAEAKLLRQHKGRLEARMQILEDHNKQLESQLHRLRQLLEQPQAEAKVNGTTVSSPSTSLQRSDSSQPMLLRVVGSQTSESMGEEDLLSPPQDTSTGLEEVMEQLNNSFPSSRGRNAPGKPMREDTM
In turn, B1 registered a Kd of 3.53 µM.

These data come from publication PMC3273627 (Journal of Molecular Biology, 2011).
